Experimental data published in patent US7390635 (CANCER RESEARCH INSTITUTE OF CONTRA COSTA, dated 2008).

What was measured:
[1] = biological target: T1, BA46 antigen of the human milk fat globule (HMFG) (human, UniProt Q08431 24-387, limits assumed); assay: affinity as summarised in the description; same assay as Example 10
T1 construct: also called 46 kDa HMFG antigen; human milk fat globule preparation
T1 sequence (looked up): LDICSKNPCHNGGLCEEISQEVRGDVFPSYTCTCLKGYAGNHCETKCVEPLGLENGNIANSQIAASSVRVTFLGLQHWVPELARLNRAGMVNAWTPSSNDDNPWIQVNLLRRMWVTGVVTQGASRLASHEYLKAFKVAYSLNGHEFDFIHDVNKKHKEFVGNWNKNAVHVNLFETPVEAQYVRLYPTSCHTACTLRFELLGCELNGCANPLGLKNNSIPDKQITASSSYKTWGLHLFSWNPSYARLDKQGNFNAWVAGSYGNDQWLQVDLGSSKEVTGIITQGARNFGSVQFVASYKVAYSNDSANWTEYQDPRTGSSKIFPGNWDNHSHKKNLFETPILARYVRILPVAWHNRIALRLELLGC
Method: (§1) Binding studies were conducted as outlined earlier. Briefly, microliter plates were prepared using successive layers of methylated BSA (bovine serum albumin), glutaraldehyde, and a preparation of delipidated HMFG (Ceriani R. L. et al. (1977) PNAS (USA) 74:582-586). Each well was coated with 100 ng of HMFG. Competition experiments were conducted by adding to each well a standard amount of ^125I-MuMc3 and an appropriate dilution of unlabeled MuMc3 or HuMc3 in RIA buffer (10% bovine calf serum, 0.3 TRITON X-100™), 0.05% sodium azide pH 7.4, in PBS). For the determination of affinity constants, each antibody was tested in competition against itself.

[2] = biological target: T1, BA46 antigen of the human milk fat …; assay: competition RIA on plate-bound delipidated HMFG, each antibody tested against itself; reciprocal of the concentration giving 50% maximal binding
Method: as §1

[3] = biological target: T1, BA46 antigen of the human milk fat …; assay: competition RIA on plate-bound HMFG; reciprocal of the concentration of unlabeled antibody giving 50% binding
Method: The protocol for the assay was as follows.
Microtiter plates (Dynatech, Chantilly, Va.) were prepared with HMFG according to standard techniques (as described by Ceriani et al., in "Monoclonal Antibodies and Functional Cell Lines" (T. J. McKern et al. eds.), pp. 398-402, New York, Plenum Press, 1984). To each well was added 25 µl ^125I-Mc3 in RIA buffer (10% bovine calf serum, 0.3% TRITON™ X-100, 0.05% sodium azide pH 7.4, in phosphate buffered saline), and competed with 25 µl of either unlabeled murine antibody or murine-human chimeric antibody in RIA buffer at final concentrations in the nanomolar range.
Iodinations were performed with ^125I (17 Ci/mg, Nordion International Inc., Kanata, Ontario, Canada). 50 µg monoclonal antibody Mc3 was labeled (at a specific activity of ~10 mCi/mg) using the chloramine T method as described by Ceriani, R. L., and Blank, E. W. (1988) *Cancer Res.* 48: 4664-4672.

B1: humanized Mc3 antibody (HuMc3) (antibody, human IgG1, V domains shown)
VH: EVQLVQSGAEVKKPGASVKVSCKASGYSFTGYTMHWVKQSPGMNLEWIGLINPYNGGTVYNQKFQDKATLTVDKSTSTAYMELSSLRSEDTAVYFCARRWRYTMDYWGQGTLVTVSS
VL: DIVMTQSPDSLAVSLGERATITCKASQDVSIGVAWYQQKPGQSPKLLIYSASSRYTGVPDRFSGSGSGTDFTLTISSLQAEDVAVYYCQQHYTSPFTFGSGTKVEIK
notes: Humanized variable regions cloned into pAH4604 (human gamma 1 constant region) and pAG4622 (human kappa constant region), so a human IgG1 kappa; also called HuMc3v2
B1 was tested, and the Ka [1] was 6.2e+08 M⁻¹ and the Ka [2] was 6e+08 M⁻¹.

B2: murine-human chimeric Mc3 antibody (ChMc3) (antibody, V domains shown)
VH: EVQLQQSGPELVKPGASMKISCEASGYSFTGYTMHWVKQSHGMNLEWIGLINPYNGGTVYNQKFQDKATLTVDKSSGTAYMELLSLTSEDSAVYFCARRWRYTMDYWGQGTSVTVSS
VL: DIVMTQSHKFMSTSEGDWVSITCKASQDVSIGVAWYQQKPGQSPKLLIYSASSRYTGVPDRFSGSGSGTDFTFTISSVQAEDLAVYYCQQHYTSPFTFGSGTNLEIK
notes: also called Chimeric antibody
Work on B2 yielded a Ka [3] of 5e+08 M⁻¹.

B3: murine monoclonal antibody Mc3 (antibody, V domains shown)
VH: EVQLQQSGPELVKPGASMKISCEASGYSFTGYTMHWVKQSHGMNLEWIGLINPYNGGTVYNQKFQDKATLTVDKSSGTAYMELLSLTSEDSAVYFCARRWRYTMDYWGQGTSVTVSS
VL: DIVMTQSHKFMSTSEGDWVSITCKASQDVSIGVAWYQQKPGQSPKLLIYSASSRYTGVPDRFSGSGSGTDFTFTISSVQAEDLAVYYCQQHYTSPFTFGSGTNLEIK
notes: Whole murine monoclonal antibody from the Mc3 hybridoma, kappa light chain; As the tracer it was labelled with 125I by the chloramine T method; also called MuMc3; Mc3 murine antibody
B3 gave a Ka [3] of 3e+08 M⁻¹.
